From patent publication US20250102513A1

What was measured:
PA peptide [1] = assay: >
PA peptide [2] = assay: three sequential binding/encoding cycles with cycle-specific barcodes (BC4, BC5, BC13); NGS of the final product

share of extended recording tags with all three cycle barcodes (PA peptide [1]): 78%
share of extended recording tags with one barcode (PA peptide [2]): 1.1%
share of extended recording tags with two barcodes (PA peptide [2]): 20.7%
Substance: anti-PA antibody (Wako Chemicals)
